The source of these data is patent publication US20250304666A1 (ALCHEMAB THERAPEUTICS, published 2025).

The target in this assay is T1, immobilised biotinylated full-length CFH (reduced) (Homo sapiens (Human), UniProt P08603 19-1231, biotinylated; reduced with 20 mM dithiothreitol).
T1 construct: Purified endogenous full-length CFH immobilised by biotin on streptavidin BLI sensors; also called immobilised CFH; surface immobilised CFH
Description: BLI (Octet), biotinylated reduced CFH on streptavidin sensors, antibody 33.3-2.08 nM as analyte, 1:1 global fit; lower end of the printed KD range. How it is done:
Biolayer interferometry (BLI, Octet 96Red) was used to measure binding kinetics of the interactions between anti-CFH antibodies and CFH. The CFH used for kinetics measurements was purified endogenous CFH was biotinylated and reduced with 20 mM dithiothreitol (DTT). An irrelevant protein was treated in the same way as a negative control reference. The CFH or irrelevant control ligands were each immobilised via the conjugated biotin onto a set of streptavidin (SA) sensor tips. Sensors were dipped into reference kinetics buffer (Phosphate buffered saline (PBS), pH 7.4, 0.05% Tween-20, 2% w/v not fat milk powder) to achieve a steady baseline. Association was measured over 300 s by dipping the sensors into an analyte concentration series of anti-CFH antibody (33.3-2.08 nM in kinetics buffer) as well as a no analyte control (kinetics buffer only). Dissociation was measured over 1500 s by dipping the sensors into kinetics buffer only. Baseline, association and dissociation steps were all measured with sensors shaking at 800 rpm and at a temperature of 23° C. Data was analysed with Data Analysis HT 11.1.0.25 software. Data from reference sensors and analyte control were subtracted. Data was corrected by aligning y-axis to average of baseline 5 s before association, inter step correction aligned to start of baseline and using Savitzky-Golay filtering. […]
On the technique in general: Biolayer interferometry detects binding as a change in optical thickness at a sensor tip.

B1: ATL5170 (antibody, human IgG1, kappa, V domains shown)
VH: QVQLVESGGGVVQPGRSLRLSCAASGFTFSNYGMHWVRQAPGKGLEWVAVTSFDGKTKYYADSVKGRFTISRDNSKNTLYLQMNSLRAEDTAVYYCAKGGATAAVLDSWGQGTLVTVSS
VL: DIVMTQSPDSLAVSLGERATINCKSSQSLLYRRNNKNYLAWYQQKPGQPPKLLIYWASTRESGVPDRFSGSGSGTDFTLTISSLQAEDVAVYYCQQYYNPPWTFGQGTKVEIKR
notes: IgG1; also called ATL_0005170
As usually defined, the Kd is the concentration at which binding is half-saturated. Read a high Kd as a looser complex. For the molecule B1, the Kd is 0.402 to 1.46 nM.
